{
  "source": "patent US20240392014A1",
  "about": "(OREGON HEALTH AND SCIENCE UNIVERSITY, published 2024)",
  "binders": {"B1": {"name": "human Fc leronlimab (expressed in vivo from AAV9-huLeron) (antibody, V domains shown)", "VH": "EVQLVESGGGLVKPGGSLRLSCAASGYTFSNYWIGWVRQAPGKGLEWIGDIYPGGNYIRNNEKFKDKTTLSADTSKNTAYLQMNSLKTEDTAVYYCGSSFGSNYVFAWFTYWGQGTLVTVSS", "VL": "DIVMTQSPLSLPVTPGEPASISCRSSQRLLSSYGHTYLHWYLQKPGQSPQLLIYEVSNRFSGVPDRFSGSGSGTDFTLKISRVEAEDVGVYYCSQSTHVPLTFGQGTKVEIK", "notes": "also called PRO 140; PRO140"}},
  "target": "T1, CCR5 on CD4+ T cells of a Mauritian cynomolgus macaque (Mauritian cynomolgus macaque, UniProt P61814 1-352)",
  "T1 construct": "also called cynomolgus macaque CCR5",
  "assay": "in vivo CCR5 receptor occupancy on CD4+ T cells after AAV9-huLeron, flow cytometry; also near full CCR5 RO in mesenteric lymph nodes and spleen",
  "method": "The ability of the leronlimab-delivering AAV to transduce myocytes, trigger them to produce leronlimab, and subsequently contain CCR5-tropic retroviral replication was tested. An AAV9 encoding human Fc leronlimab (AAV9-huLeron) was administered at 2×10¹² AAV genomes/kg of to a Mauritian cynomolgus macaque (MCM) chronically infected with the CCR5-tropic virus SHIVSF162P3. […] Leronlimab was detectable in plasma at week 3 after administration of leronlimab-AAV following achievement of full CCR5 receptor occupancy in peripheral blood (FIGS. 2A and 2C). Leronlimab persisted in the plasma for one year post leronlimab-AAV administration (FIG. 2A) without appearance of any ADA (FIG. 2B). Following leronlimab-AAV administration and full CCR5 RO on peripheral blood CD4+ T cells, plasma viral loads fell to undetectable levels. Plasma viremia “blips” that coincided with transient dips in CCR5 RO and plasma leronlimab levels were observed. Finally, CD4+ T cells from mesenteric lymph nodes (LN) and spleen maintained near full CCR5 RO (FIG. 2D). Cell-associated SHIV DNA (FIG. 2E) and RNA (FIG. 2F) decreased in blood and spleen, with minimal decreases in mesenteric LN.",
  "data": [
    {"binder": "B1", "values": [
      {"measurement": "binding result", "result": "binds"}
    ]}
  ]
}
